Results taken from PMC3058826.

Target: H3(1–15)K4 peptide (UniProt P68431)
Assay: ITC

Kd: 8.6 µM
Substance: TRIM24 PHD-Bromo (PHD-linker-Bromo segment, residues 824–1006), wild type (from UniProt O15164 824-1006) (domain or fragment)
